# Assay results as given in article PMC10303064, “Sulfated Lactosyl Archaeol Archaeosome-Adjuvanted Vaccine Formulations Targeting Rabbit Hemorrhagic Disease Virus Are Immunogenic and Efficacious” (Vaccines, 2023).
# B1: RHDV2 VP60 capsid protein (natural protein)
# chain: EGKARAAPQGETAGTATTASVPGTTTDGMDPGVVATTSVVTTENASTSIATAGIGGPPQQVDQQETWRTNFYYNDVFTWSVADAPGNILYTVQHSPQNNPFTAVLSQMYAGWAGGMQFRFIVAGSGVFGGRLVAAVIPPGIEIGPGLEVRQFPHVVIDARSLEPVTITMPDLRPNMYHPTGNPGLVPTLVLSVYNNLINPFGGSTSAIQVTVETRPSEDFEFVMIRAPSSKTVDSISPADLLTTPVLTGVGTDNRWNGEIVGLQPVPGGFSTCNRHWNLNGSTFGWSSPRFAAIDHDGGNASFPGSSSSNVLELWYASAGSATDNPISQIAPDGFPDMSFVPFSGSTIPTAGWVGFGGIWNSNNGAPFVTTMQAYELGFATGAPSNPQPTTTTSGAQIVAKSIYGVANGINQTTAGLFVMASGVISTPNSSAITYTPQPNRIVNAPGTPAAAPIGKNTPIMFASVVRRTGDINAEAGSTNGTQYGAGSQPLPVTVGLSLNNYSSALMPGQFFVWQLNFASGFMELGLSVDGYFYAGTGALATLIDLSELVDIRPVGPRPSTSTLVYNLGGTTNGFSYV
# notes: VP60 capsid protein of rabbit hemorrhagic disease virus 2 (RHDV2); the tag was removed after purification; After TEV cleavage a single G of the ENLYFQG site probably stays in front of E2 (surmised); Self-assembles into virus-like particles of ~30 nm; also called RHDV2 VLP; RHDV2 capsid protein; source: Baculovirus expression system (GenScript), purified, tag removed; not shown: His6, N-terminal, …
# Biological target: the molecule itself
# Assay: negative-stain transmission electron microscopy; purified RHDV2 VP60 protein alone adsorbed on glow-discharged formvar/carbon copper grids, stained with 1% uranyl acetate, imaged at 300 keV
protein,measurement,value
B1,binding result,binds
